Reference: patent US20260116991A1 (HAINAN SIMCERE ZAIMING PHARMACEUTICAL, published 2026)
Substitutions are numbered along the chain they refer to.

B1: F1.145.22 human-murine chimeric antibody (antibody, human IgG1, kappa, V domains shown)
VH: QVQLQQSGTDLARPGASVKLSCKASGYTFTSFGISWVKQRTGQGLEWIGEIYPRSGSPYYNEKFTGKATLTADKSSSTAYMELRSLTSEDSAVYFCAKDFGSSYVFDYWGQGTALTVSS
VL: DIQMTQSPASLSASVGETVTITCRASENIYSYLTWYQQKQGKSPQLLVYNAKTLAEGVPSRFSGSGSGTQFSLKINSLQPEDFGTYYCQHHYGTPPTFGTGTKLDLKR
B2: F1.110.24 human-murine chimeric antibody (antibody, human IgG1, kappa, V domains shown)
VH: EVKLVESGGGLVQPGGSLKLSCAASGFTFSDFYMYWVRQTPEKRLEWVAFISNGGGSTYYPDTVKGRFTISRDNVKNTLYLQMSRLKSEDTAMYYCARPDTSWFAYWGQGSLVTVSA
VL: DIQMTQTTSSLSASLGDRVTISCRASQDIDNYLNWYQQKPDGTVKVLISYTSRLHSGVPSRFSGSGSGTDYSLTISNLEQEDIATYFCQQGNTLPWTFGGGTKLEIKR
B3: F2.55.11 human-murine chimeric antibody (antibody, human IgG1, kappa, V domains shown)
VH: EVKLVESGGGLVKPGGSLKLSCAASGLTFSTCTMSWVRQTPAKRLEWVATISSGGGNTYYPDSVKGRFTISRDNARNTLYLQMSSLRSEDTAMYYCVRLYYDGSPYAMDYWGQGTSVTVSS
VL: B2 VL with D30S, Y32H, V46L, S49Y, G91D, N92S, T93K, L94P, W96P, G100S
B4: F1.3.9 human-murine chimeric antibody (antibody, human IgG1, kappa, V domains shown)
VH: QVQLQQPGTELVKPGASVKLSCKASGYTFTSYWIHWVKQRPGQGLEWIGNINPPNAGTNYNEKFKSKATLTVDKSSSTAYMQLSSLTSEDSAVYYCARGRWLLHDYWGQGTTLTVSS
VL: DIQMTQSPASLSISVGETVTITCRASENIYSNLAWYQQKQGKSPQLLVYGTKNLAEGVPSRFSGSGSGTQYSLKINSLQSEDFGNYYCQHFWGTPYTFGGGTKLEILR
B5: F1.111.11 human-murine chimeric antibody (antibody, human IgG1, kappa, V domains shown)
VH: EVQLQQSGPELVKPGASVKISCKASGYTFTDYYMNWVKQSHGKSLEWIGDIYPNNGDTTYNQRFKGKATLTVDKSSSTAYMELRSLASEDSAVYYCACPYNNPFGYWGQGTLVTVSA
VL: DVVMTQTPLSLPVSLGDQASISCRSSQSLVHSNGNTYLHWYLQKPGQSPKLLIYKVSNRFSGVPDRFSGSGSGTDFTLKISRVEAEDLGVYFCSQSTHVPWTFGGGTKLEIKR
B6: F2.92.1 human-murine chimeric antibody (antibody, human IgG1, kappa, V domains shown)
VH: QVQLQQSGAELVRPGASVKLSCKASGYIFSDYEIHWVKQTPVHGLECIGAVDPETGGTAYNQKFKGKATLTADKSSSTAYMELRSLTSEDSAVYFCTRFYSFAYWGQGTLVTVST
VL: B5 VL with A19G, H39Q, S94C, P100L, W101P
B7: F2.39.2 human-murine chimeric antibody (antibody, human IgG1, kappa, V domains shown)
VH: QVQLQQSGAELVRPGASVKVSCKASGYTFTDYEMHWMKQTPVHGLEWIGANEPETGRSAYDQKFKGKATLTADKSSSTAYMELRSLTSEDSAVYYCTRFYSFAYWGQGTLVTVSA
VL: B5 VL with S28G, S32N, S96N, W101P
B8: F1.62.9 human-murine chimeric antibody (antibody, human IgG1, kappa, V domains shown)
VH: QVQLQQSDAELVKPGASVKISCKVSGYIFTDHTIHWMKQRPEQGLEWIGYIYPRDGSIKYNENFKGKATLTADKSSSATYMQLNSLTSEDSAVYFCARPIYYDYAYYFDYWGQGTTLTVSS
VL: B5 VL with T7S, S26R, L51V, W101Y
B9: F2.23.8 human-murine chimeric antibody (antibody, human IgG1, kappa, V domains shown)
VH: B6 VH with I28T, S30T, I34M, C47W, I48F, V51I, K65R, G66A, F95Y, T115A
VL: B5 VL with H39Q, S81T, W101Y, G105S
B10: F1.92.17 human-murine chimeric antibody (antibody, human IgG1, kappa, V domains shown)
VH: EVQLQQSGPELVKPGASVKMSCKASGYTFTDYNMHWVRQSHGKSLEWIGYINPNNGDTIYNQNFKGKATLTVNKSSSTAYMELRSLTSEDSAVYYCSRTITYYYSMDYWGPGTSVTVSS
VL: QIVLTQSPALMSASPGEKVTMTCSASSSVSYMYWYQQKPRSSPKPWIYLTSNLASGVPARFSGSGSGTSYSLTISSMEAEDAATYYCQQWSSNPLTFGAGTKLELKR
B11: F1.118.4 human-murine chimeric antibody (antibody, human IgG1, kappa, V domains shown)
VH: QVQLQQSGAELAKPGASVKLSCKASGYSFTSYWIHWVKQRPGQGLEWIGYINPSSGYTKYNQKFKDKATLTADKSSSTAYMQLSSLTYEDSAVYYCARFGSSSFYFDYWGQGTTLTVSS
VL: DIVLTQSPASLAVSLGQRATISCRASQSVSSSSYSYMHWYQQKPGQPPKLLIKYASNLDSGVPARFSGSGSGTDFTLNIHPVEEEDTATYYCQHSWEIPAFGGGTKLEIKR
B12: F1.136.7 human-murine chimeric antibody (antibody, human IgG1, kappa, V domains shown)
VH: EVQLQQSGPVMVKPGPSVKISCQTSGFTFTDYYIHWVKQSHGKSLEWIGLVFPYDGGTNYNQKFKDKATLTLDTSSSTAYMELNSLTSEDSAVYYCARAGGFSYALNYWGQGTSVTVSS
VL: DIQMTQSPSSLSASLGGKVTITCKASQDINNYIAWYQHKPGKGPRLLIHFTSTLQPGIPSRFSGSGSGRDYSFSISNLEPEDIATYYCLQYDNLLLTFGAGTKLELKR
B13: F1.9.19 human-murine chimeric antibody (antibody, human IgG1, kappa, V domains shown)
VH: DVQLQESGPGLVKPSQSLSLTCSVTGYSITSGYYWNWIRQFPGNRLEWMAYISYDGINNYNPSLKNRISIARDTSTNQFFLKLNSVTSEDTATYYCATTTEVALFDHWGQGTTLTVSS
VL: DVLLTQTPLSLPVSLGDQASISCRSSQNIVHGNGNTYLEWFLQKPGQSPKLLIYKVSNRFSGVPDRFSGSGSGTDFTLKISRVEAEDLGLYYCFQASHVPWTFGGGTKLEIKR
B14: F2.154.1 human-murine chimeric antibody (antibody, human IgG1, kappa, V domains shown)
VH: QVQLQQSGAELVRPGASVKLSCKASGYRFTDYEMHWVKQTPVHGLEWIGTIDPETGNTAYTQKFMDKATLTADKSSSTAYMELRSLTSEDSAVYYCTRGYSFTYWGQGTLATVSA
VL: B13 VL with L4M, G32S, E39Q, F41Y, Y54F, L90V, A96G, W101F, G105T
B15: F2.169.2 human-murine chimeric antibody (antibody, human IgG1, kappa, V domains shown)
VH: EVQLVETGGGLVQPKGSLKLSCAASGFSFNTNAMNWVRQAPGKGLEWVARIRSKSNNYATYYADSVKDRFTISRDDSQSMLYLQMNNLKTEDTAMYYCVRDGYYVLFAYWGQGTLVTVSA
VL: B13 VL with L4M, S25F, N28S, H31N, G32S, L90V, A96G, W101F, G105T
B16: F1.153.1 human-murine chimeric antibody (antibody, human IgG1, kappa, V domains shown)
VH: QIQLVQSGPELKKPGETVKISCKASGYTFTTAGMQWVQKMPGKGFKWIGWINTHSGEPQYAEDFKGRFAFSLETSASTAYLQISNLKNEDTATYFCARSFYYHGSSFFYFDYWGQGTTLTVSS
VL: DIVMTQSQKFMSTTVGDRVSITCKASQNVGTAVAWYQQKPGQSPKLLIYSASNRYTGVPDRFTGSGSGADFTLTISNMQSEDLADYFCQQYSRYPLTFGAGTKLELKR

Molecular target: T1, murine GPC3-his protein (Sino Biological, Cat. No. 50989-M08B) (murine, UniProt Q8CFZ4 25-558)
T1 construct: Bought protein; also called murine GPC3 protein
T1 sequence (Q8CFZ4 25-558 limits assumed): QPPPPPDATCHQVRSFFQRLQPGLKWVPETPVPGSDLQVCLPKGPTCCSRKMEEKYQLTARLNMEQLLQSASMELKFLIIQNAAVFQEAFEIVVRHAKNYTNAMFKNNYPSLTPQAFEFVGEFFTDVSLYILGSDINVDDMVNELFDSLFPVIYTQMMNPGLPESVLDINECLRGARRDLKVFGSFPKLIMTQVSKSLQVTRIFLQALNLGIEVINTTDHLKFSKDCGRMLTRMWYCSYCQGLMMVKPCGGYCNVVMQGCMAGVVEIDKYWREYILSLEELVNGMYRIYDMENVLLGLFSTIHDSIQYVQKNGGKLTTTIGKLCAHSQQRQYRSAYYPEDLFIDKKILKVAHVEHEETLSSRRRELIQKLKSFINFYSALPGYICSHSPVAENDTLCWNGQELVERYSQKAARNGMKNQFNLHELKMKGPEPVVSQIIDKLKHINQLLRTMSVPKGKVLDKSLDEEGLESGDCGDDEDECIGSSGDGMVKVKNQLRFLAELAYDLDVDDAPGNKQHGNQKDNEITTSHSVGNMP
Assay: ELISA, coated murine GPC3-His;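 note: antigen coated on plates at 1 µg/mL, test antibody bound for 2 h at 37 °C, detected with HRP-conjugated secondary antibody and TMB substrate after acid stop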

Binder	OD450 at 0.0001 nM antibody	OD450 at 0.001 nM antibody	OD450 at 0.01 nM antibody	OD450 at 0.1 nM antibody	OD450 at 1 nM antibody	OD450 at 10 nM antibody	OD450 at 100 nM antibody
B1	0.05 OD450 nm	0.06 OD450 nm	0.08 OD450 nm	0.75 OD450 nm	0.77 OD450 nm	1.62 OD450 nm	1.32 OD450 nm
B2	0.05 OD450 nm	0.05 OD450 nm	0.05 OD450 nm	0.12 OD450 nm	0.32 OD450 nm	0.53 OD450 nm	0.3 OD450 nm
B3	0.05 OD450 nm	0.05 OD450 nm	0.05 OD450 nm	0.05 OD450 nm	0.05 OD450 nm	0.07 OD450 nm	0.16 OD450 nm
B4	0.05 OD450 nm	0.04 OD450 nm	0.04 OD450 nm	0.05 OD450 nm	0.18 OD450 nm	0.18 OD450 nm	0.37 OD450 nm
B5	0.06 OD450 nm	0.13 OD450 nm	0.62 OD450 nm	2.04 OD450 nm	2.67 OD450 nm	2.6 OD450 nm	3.01 OD450 nm
B6	0.04 OD450 nm	0.05 OD450 nm	0.05 OD450 nm	0.07 OD450 nm	0.05 OD450 nm	0.05 OD450 nm	0.07 OD450 nm
B7	0.05 OD450 nm	0.06 OD450 nm	0.07 OD450 nm	0.05 OD450 nm	0.05 OD450 nm	0.05 OD450 nm	0.06 OD450 nm
B8	0.04 OD450 nm	0.04 OD450 nm	0.05 OD450 nm	0.04 OD450 nm	0.04 OD450 nm	0.06 OD450 nm	0.28 OD450 nm
B9	0.05 OD450 nm	0.06 OD450 nm	0.07 OD450 nm	0.04 OD450 nm	0.06 OD450 nm	0.05 OD450 nm	0.06 OD450 nm
B10	0.05 OD450 nm	0.05 OD450 nm	0.05 OD450 nm	0.06 OD450 nm	0.11 OD450 nm	0.22 OD450 nm	0.13 OD450 nm
B11	0.05 OD450 nm	0.05 OD450 nm	0.05 OD450 nm	0.05 OD450 nm	0.05 OD450 nm	0.06 OD450 nm	0.07 OD450 nm
B12	0.05 OD450 nm	0.05 OD450 nm	0.06 OD450 nm	0.22 OD450 nm	0.17 OD450 nm	0.91 OD450 nm	0.17 OD450 nm
B13	0.05 OD450 nm	0.04 OD450 nm	0.05 OD450 nm	0.05 OD450 nm	0.05 OD450 nm	0.05 OD450 nm	0.07 OD450 nm
B14	0.05 OD450 nm	0.05 OD450 nm	0.05 OD450 nm	0.05 OD450 nm	0.05 OD450 nm	0.05 OD450 nm	0.06 OD450 nm
B15	0.05 OD450 nm	0.09 OD450 nm	0.38 OD450 nm	1.68 OD450 nm	2.49 OD450 nm	2.72 OD450 nm	2.63 OD450 nm
B16	0.04 OD450 nm	0.08 OD450 nm	0.04 OD450 nm	0.04 OD450 nm	0.05 OD450 nm	0.08 OD450 nm	0.09 OD450 nm
